{"source": "patent US20240189442A1", "about": "(ALLYGEN GROUP, published 2024)", "target": "T1, Ab2B", "T1 construct": "The variable domains are the same in both; also called antibody Ab2B", "T1 sequence (heavy, as listed by the source, chain 1 of 2)": "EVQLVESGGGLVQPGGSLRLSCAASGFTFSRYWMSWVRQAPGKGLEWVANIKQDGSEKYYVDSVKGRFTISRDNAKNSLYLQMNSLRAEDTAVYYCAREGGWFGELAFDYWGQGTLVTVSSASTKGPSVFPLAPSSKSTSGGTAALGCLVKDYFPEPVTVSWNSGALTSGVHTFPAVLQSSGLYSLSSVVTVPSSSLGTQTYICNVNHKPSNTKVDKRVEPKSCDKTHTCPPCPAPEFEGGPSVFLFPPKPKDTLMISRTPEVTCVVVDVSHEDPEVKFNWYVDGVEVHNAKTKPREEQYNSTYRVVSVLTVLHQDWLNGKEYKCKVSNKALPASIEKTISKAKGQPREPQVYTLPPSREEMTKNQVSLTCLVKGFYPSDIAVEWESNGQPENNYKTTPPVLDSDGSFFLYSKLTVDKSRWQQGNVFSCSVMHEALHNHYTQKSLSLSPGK", "T1 sequence (light, as listed by the source, chain 2 of 2)": "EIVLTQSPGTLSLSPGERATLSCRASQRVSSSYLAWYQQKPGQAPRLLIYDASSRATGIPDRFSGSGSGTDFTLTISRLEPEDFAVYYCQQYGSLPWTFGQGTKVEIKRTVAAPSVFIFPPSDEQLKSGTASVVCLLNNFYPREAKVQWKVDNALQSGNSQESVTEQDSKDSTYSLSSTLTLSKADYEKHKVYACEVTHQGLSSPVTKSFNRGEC", "assay": "Biacore; Ab2B captured on anti-human Fab chip, peptide as analyte", "experimental": "Anti-human Fab was ligated to Biacore chips at pH 4.5. […] TBPs were flowed through the chip as analytes at 30 μL/min. 10 mM glycine at pH 1.5 was used for regeneration of the chip. Conditions were optimized as needed.", "note": "No end group written: not given here."}
{"binder": "{NH2‑(PEG)12}-RSQSRSRYYRQRQRSRRRRRRS (also called TBPA)", "note": "[SEQ ID NO: 151]", "values": [{"measurement": "binding result", "result": "no binding (tested: 50.0~0.8 nM analyte range)"}]}
